Literature values in US6610516B1, “Cell culture process” (Genentech, Inc., priority 1999, dated 2003).

Assays:
fibrin = conditions: Keyt et al. 1994

Molecule | Clearance rate versus wild-type human t-PA (Hotchkiss et al., Lau et al.) | Circulatory half-life versus wild-type human t-PA (Keyt et al. 1994) | Fibrin specificity versus wild-type human t-PA (fibrin)
N117Q: t-PA variant wherein asparagine at position 117 of wild-type human t-PA was substituted with glutamine (protein, UniProt P00750 36-562, looked up, variant N117Q) Tissue-type plasminogen …: SYQVICRDEKTQMIYQQHQSWLRPVLRSNRVEYCWCNSGRAQCHSVPVKSCSEPRCFNGGTCQQALYFSDFVCQCPEGFAGKCCEIDTRATCYEDQGISYRGTWSTAESGAECTNWQSSALAQKPYSGRRPDAIRLGLGNHNYCRNPDRDSKPWCYVFKAGKYSSEFCSTPACSEGNSDCYFGNGSAYRGTHSLTESGASCLPWNSMILIGKVYTAQNPSAQALGLGKHNYCRNPDGDAKPWCHVLKNRRLTWEYCDVPSCSTCGLRQYSQPQFRIKGGLFADIASHPWQAAIFAKHRRSPGERFLCGGILISSCWILSAAHCFQERFPPHHLTVILGRTYRVVPGEEEQKFEVEKYIVHKEFDDDTYDNDIALLQLKSDSSRCAQESSVVRTVCLPPADLQLPDWTECELSGYGKHEALSPFYSERLKEAHVRLYPSSRCTSQHLLNRTVTDNMLCAGDTRSGGPQANLHDACQGDSGGPLVCLNDGRMTLVGIISWGLGCGQKDVPGVYTKVTNYLDWIRDNMRP | about two-fold slower clearance rate | – | –
TNK t-PA: t-PA variant: glycosylation site added at position 103, removed at 117, positions 296-299 replaced by AAAA (protein, UniProt P00750 36-562, looked up, variant T103N N117Q K296A H297A R298A R299A) Tissue-type plasminogen …: SYQVICRDEKTQMIYQQHQSWLRPVLRSNRVEYCWCNSGRAQCHSVPVKSCSEPRCFNGGTCQQALYFSDFVCQCPEGFAGKCCEIDTRATCYEDQGISYRGNWSTAESGAECTNWQSSALAQKPYSGRRPDAIRLGLGNHNYCRNPDRDSKPWCYVFKAGKYSSEFCSTPACSEGNSDCYFGNGSAYRGTHSLTESGASCLPWNSMILIGKVYTAQNPSAQALGLGKHNYCRNPDGDAKPWCHVLKNRRLTWEYCDVPSCSTCGLRQYSQPQFRIKGGLFADIASHPWQAAIFAAAAASPGERFLCGGILISSCWILSAAHCFQERFPPHHLTVILGRTYRVVPGEEEQKFEVEKYIVHKEFDDDTYDNDIALLQLKSDSSRCAQESSVVRTVCLPPADLQLPDWTECELSGYGKHEALSPFYSERLKEAHVRLYPSSRCTSQHLLNRTVTDNMLCAGDTRSGGPQANLHDACQGDSGGPLVCLNDGRMTLVGIISWGLGCGQKDVPGVYTKVTNYLDWIRDNMRP | – | increased circulatory half-life | markedly better fibrin specificity
